This passage reports activity (% suppression of RXR activation) and activity results from patent US5707800, “Retinoic acid response elements and assays employing same” (The Salk Institute for Biological Studies).

The test system of one series is RAR (subtype not stated). The series can be described thus: cell_activity. Particulars: CV-1 cells; RAR blocks RXR transactivation at equal expression vector amount; no RA activation by RAR itself.
Series [1] addresses RXR alpha (retinoid X receptor alpha) (Homo sapiens, UniProt P19793 P19793:1-462). Description: cell_activity; CAT induction by retinoic acid in F9 cells, CRBPII promoter reporter pCRBPII-CAT. The conditions noted are these: tags: expression plasmid; chain copies: 4; label: 32P. As for the experimental part: Chem. 262:2425–2467 (1987)], was introduced into a plasmid which would regulate expression of the reporter, bacterial chloramphenicol acetyl transferase (see FIG. 1). The resultant reporter plasmid, pCRBPII-CAT, was tested for retinoic acid (RA) responsiveness after transfection into mouse embryonal teratocarcinoma F9 cells. F9 cells endogenously express high amounts of retinoic acid receptor (RAR), and can efficiently transactivate (>100-fold) a reporter plasmid containing the well characterized RA-inducible promoter of the RARβ gene [see de The et al., in Nature 343:177–180 (1990) and Sucov, et al., in Proc. Natl. Acad. Sci. U.S.A. 87:5392–5396 (1990)]. However, pCRBPII-CAT conferred no basal or RA-inducible CAT activity in these cells. To eliminate the possibility that regulation of the CRBPII promoter requires an augmented concentration of RAR, as is the case for the laminin retinoic acid response element [RARE; see Vasias, et al., in Proc. Natl Acad. Sci. U.S.A. 86:9099–9103 (1989], or that its regulation is isoform specific, expression vectors bearing all three subtypes of RAR were each separately cotransfected with pCRBPII-CAT into F9 cells.
To assess the exact sequences within the CRBPII promoter that function as an RXR response element (RXRE), a series of 5'-deletion mutants were constructed starting with the parent reporter plasmid pCRBPII-CAT (see FIG. 2). […]

RXR alpha (retinoid X receptor alpha), sequence (P19793 whole entry, one chain of several): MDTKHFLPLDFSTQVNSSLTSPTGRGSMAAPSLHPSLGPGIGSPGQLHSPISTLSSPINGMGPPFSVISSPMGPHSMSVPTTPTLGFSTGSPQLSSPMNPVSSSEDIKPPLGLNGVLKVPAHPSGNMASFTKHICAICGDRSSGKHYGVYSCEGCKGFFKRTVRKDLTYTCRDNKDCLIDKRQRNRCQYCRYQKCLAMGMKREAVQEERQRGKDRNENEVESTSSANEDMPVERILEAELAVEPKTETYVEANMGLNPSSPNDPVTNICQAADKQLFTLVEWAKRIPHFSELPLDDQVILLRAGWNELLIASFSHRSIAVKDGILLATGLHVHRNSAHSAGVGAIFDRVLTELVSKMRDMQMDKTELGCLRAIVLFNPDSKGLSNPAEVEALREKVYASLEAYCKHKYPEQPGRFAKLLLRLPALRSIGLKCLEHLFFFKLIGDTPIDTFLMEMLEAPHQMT

In the series with RAR (subtype not stated), “GCTGTCACAGGTCACAGGTCACAGGTCACAGTTCA (double strand) [CRBPII-RXRE]” came in with an activity (% suppression of RXR activation) of 90.

B1: CRBPII-RXRE (dsDNA)
DNA 1: GCTGTCACAGGTCACAGGTCACAGGTCACAGTTCA
DNA 2: TGAACTGTGACCTGTGACCTGTGACCTGTGACAGC
In turn, B1 came in with an activity in series [1] of 100 fold.
